Biological target: binding reagent of the similar bridge assay for the anti-CD19 (SJ25C1) CAR
Experiment: similar bridge assay for the anti-CD19 (SJ25C1) CAR

Sequence of binding reagent of the similar bridge assay for the anti-CD19 (SJ25C1) CAR (scFv, as listed by the source limits assumed): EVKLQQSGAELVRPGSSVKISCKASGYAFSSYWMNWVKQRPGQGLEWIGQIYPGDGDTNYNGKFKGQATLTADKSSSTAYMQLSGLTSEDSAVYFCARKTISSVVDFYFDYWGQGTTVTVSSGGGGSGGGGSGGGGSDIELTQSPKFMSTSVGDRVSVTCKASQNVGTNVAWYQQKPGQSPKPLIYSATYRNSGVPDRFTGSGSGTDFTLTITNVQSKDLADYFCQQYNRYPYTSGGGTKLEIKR

B1: anti-idiotype antibody clone A-1 (anti-ID A-1) (antibody, mouse IgG1, kappa, V domains shown)
VH: QVQLQQPGSELVRPGGSVKLSCKASDYTFTSYWMHWVRQRPGQGLEWIGNIYPGSGGTNYDEKFKRKATLTVDTSSSTAYMQLRSLTSEDSAVYYCTREVTTVAYYYSMDYWGQGTSVTVSS
VL: DIQMTQTTSSLSASLGDRVTISCRASQDISNYLNWYQQKPDGTVKLLIYYTSRLHSGVPSRFSGSGSGTDYSLTISNLEQEDIATYFCQQGKTVPFTFGSGTKLEIKR
- fold signal over plasma background: > 5 fold
- sensitivity of the bridge assay: < 100 ng/mL
